Data set [1] deals with HeLa Kyoto. Description: melting temperature (median over replicates), in situ; higher = more thermally stable.
The subject of data set [2] is HeLa Kyoto. Kind of data set: solubility in G1/S (NP-40 vs SDS abundance) (log2 ratio); higher = more soluble. As to conditions: cell cycle stage: G1/S.
Data set [3] has as its system HeLa Kyoto. Kind of data set: solubility change mitosis vs G1/S (difference of NP-40 vs SDS log2 ratios) (log2 ratio difference); higher = more soluble in mitosis.
The test system of data set [4] is HeLa Kyoto. Kind of data set: thermal stability score vs G1/S (z-score of summed log2 fold changes over temperatures); higher = more thermally stable than in G1/S.
The mark [5] stands for this setting: cell cycle stage: early G1 (4.5 h after nocodazole release).
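Wherever melting temperature (median over replicates), in situ is given: HeLa Kyoto cells synchronized by double thymidine or nocodazole block, proteins quantified by TMT10plex mass spectrometry, three independent biological replicates.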
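Wherever solubility change mitosis vs G1/S (difference of NP-40 vs SDS log2 ratios) is given: synchronized HeLa Kyoto cells (double thymidine block for G1/S, nocodazole release for mitosis), protein amounts in NP-40 versus SDS lysates quantified by mass spectrometry, three biological replicates.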
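Wherever solubility in G1/S (NP-40 vs SDS abundance) is given: HeLa Kyoto cells arrested at G1/S by double thymidine block, proteins quantified by TMT10plex mass spectrometry in mild NP-40 versus SDS extracts, three biological replicates.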
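Wherever thermal stability score vs G1/S (z-score of summed log2 fold changes over temperatures) is given: synchronized HeLa Kyoto cells, proteins quantified by TMT10plex mass spectrometry, three biological replicates, mitosis taken 0.5 h after nocodazole release, G1/S directly after double thymidine block.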

As to “MLCGRWRRCRRPPEEPPVAAQVAAQVAAPVALPSPPTPSDGGTKRPGLRALKKMGLTEDEDVRAMLRGSRLRKIRSRTWHKERLYRLQEDGLSVWFQRRIPRAPSQHIFFVQHIEAVREGHQSEGLRRFGGAFAPARCLTIAFKGRRKNLDLAAPTAEEAQRWVRGLTKLRARLDAMSQRERLDHWIHSYLHRADSNQDSKMSFKEIKSLLRMVNVDMNDMYAYLLFKECDHSNNDRLEGAEIEEFLRRLLKRPELEEIFHQYSGEDRVLSAPELLEFLEDQGEEGATLARAQQLIQTYELNETAKQHELMTLDGFMMYLLSPEGAALDNTHTCVFQDMNQPLAHYFISSSHNTYLTDSQIGGPSSTEAYVRAFAQGCRCVELDCWEGPGGEPVIYHGHTLTSKILFRDVVQAVRDHAFTLSPYPVILSLENHCGLEQQAAMARHLCTILGDMLVTQALDSPNPEELPSPEQLKGRVLVKGKKLPAARSEDGRALSDREEEEEDDEEEEEEVEAAAQRRLAKQISPELSALAVYCHATRLRTLHPAPNAPQPCQVSSLSERKAKKLIREAGNSFVRHNARQLTRVYPLGLRMNSANYSPQEMWNSGCQLVALNFQTPGYEMDLNAGRFLVNGQCGYVLKPACLRQPDSTFDPEYPGPPRTTLSIQVLTAQQLPKLNAEKPHSIVDPLVRIEIHGVPADCARQETDYVLNNGFNPRWGQTLQFQLRAPELALVRFVVEDYDATSPNDFVGQFTLPLSSLKQGYRHIHLLSKDGASLSPATLFIQIRIQRS [PLCD3]”, the melting temperature in the data set with HeLa Kyoto [1] (cell cycle stage: G1/S) amounted to 51.6 °C; in the data set on HeLa Kyoto [1] (cell cycle stage: mitosis), 48.9 °C. Further, in the data set with HeLa Kyoto [2], the “solubility in G1/S (log2)” value was -0.344. Moreover, in the data set with HeLa Kyoto [3], the “solubility change mitosis (log2)” value worked out at 0.0889. Further, the results for the thermal stability score in the data set on HeLa Kyoto [4] (setting [5]) and in the data set on HeLa Kyoto [4] (cell cycle stage: mitosis) were 0.427 and 0.0629, respectively.
Turning to “MLDFFTIFSKGGLVLWCFQGVSDSCTGPVNALIRSVLLQERGGNNSFTHEALTLKYKLDNQFELVFVVGFQKILTLTYVDKLIDDVHRLFRDKYRTEIQQQSALSLLNGTFDFQNDFLRLLREAEESSKIRAPTTMKKFEDSEKAKKPVRSMIETRGEKPKEKAKNSKKKGAKKEGSDGPLATSKPVPAEKSGLPVGPENGVELSKEELIRRKREEFIQKHGRGMEKSNKSTKSDAPKEKGKKAPRVWELGGCANKEVLDYSTPTTNGTPEAALSEDINLIRGTGSGGQLQDLDCSSSDDEGAAQNSTKPSATKGTLGGMFGMLKGLVGSKSLSREDMESVLDKMRDHLIAKNVAADIAVQLCESVANKLEGKVMGTFSTVTSTVKQALQESLVQILQPQRRVDMLRDIMDAQRRQRPYVVTFCGVNGVGKSTNLAKISFWLLENGFSVLIAACDTFRAGAVEQLRTHTRRLSALHPPEKHGGRTMVQLFEKGYGKDAAGIAMEAIAFARNQGFDVVLVDTAGRMQDNAPLMTALAKLITVNTPDLVLFVGEALVGNEAVDQLVKFNRALADHSMAQTPRLIDGIVLTKFDTIDDKVGAAISMTYITSKPIVFVGTGQTYCDLRSLNAKAVVAALMKA [SRPR]”, the figures for the melting temperature with HeLa Kyoto [1] (cell cycle stage: G1/S) and in the data set on HeLa Kyoto [1] (cell cycle stage: mitosis) were 50.5 °C and 50.9 °C, respectively. Also, in the data set with HeLa Kyoto [2], the “solubility in G1/S (log2)” value worked out at 0.119. For the same sequence, in the data set with HeLa Kyoto [3], the “solubility change mitosis (log2)” value is -0.0915. The figures for the thermal stability score with HeLa Kyoto [4] (setting [5]) and in the data set on HeLa Kyoto [4] (cell cycle stage: mitosis) were 1.98 and 2.56, respectively.
As for “MLEEAGEVLENMLKASCLPLGFIVFLPAVLLLVAPPLPAADAAHEFTVYRMQQYDLQGQPYGTRNAVLNTEARTMAAEVLSRRCVLMRLLDFSYEQYQKALRQSAGAVVIILPRAMAAVPQDVVRQFMEIEPEMLAMETAVPVYFAVEDEALLSIYKQTQAASASQGSASAAEVLLRTATANGFQMVTSGVQSKAVSDWLIASVEGRLTGLGGEDLPTIVIVAHYDAFGVAPWLSLGADSNGSGVSVLLELARLFSRLYTYKRTHAAYNLLFFASGGGKFNYQGTKRWLEDNLDHTDSSLLQDNVAFVLCLDTVGRGSSLHLHVSKPPREGTLQHAFLRELETVAAHQFPEVRFSMVHKRINLAEDVLAWEHERFAIRRLPAFTLSHLESHRDGQRSSIMDVRSRVDSKTLTRNTRIIAEALTRVIYNLTEKGTPPDMPVFTEQMQIQQEQLDSVMDWLTNQPRAAQLVDKDSTFLSTLEHHLSRYLKDVKQHHVKADKRDPEFVFYDQLKQVMNAYRVKPAVFDLLLAVGIAAYLGMAYVAVQHFSLLYKTVQRLLVKAKTQ [NCLN]”, the melting temperature in the data set on HeLa Kyoto [1] (cell cycle stage: G1/S) turned out to be 53.9 °C; with HeLa Kyoto [1] (cell cycle stage: mitosis), 53.7 °C. Moreover, the “solubility in G1/S (log2)” value in the data set with HeLa Kyoto [2] is 0.0995. Further, the “solubility change mitosis (log2)” value in the data set on HeLa Kyoto [3] is -0.129. Also, the thermal stability score came out at 2.71 with HeLa Kyoto [4] (setting [5]) and 3.43 in the data set on HeLa Kyoto [4] (cell cycle stage: mitosis).
Turning to “MLEEDMEVAIKMVVVGNGAVGKSSMIQRYCKGIFTKDYKKTIGVDFLERQIQVNDEDVRLMLWDTAGQEEFDAITKAYYRGAQACVLVFSTTDRESFEAVSSWREKVVAEVGDIPTVLVQNKIDLLDDSCIKNEEAEALAKRLKLRFYRTSVKEDLNVNEVFKYLAEKYLQKLKQQIAEDPELTHSSSNKIGVFNTSGGSHSGQNSGTLNGGDVINLRPNKQRTKKNRNPFSSCSIP [RAB23]”, the melting temperature in the data set on HeLa Kyoto [1] (cell cycle stage: G1/S) and in the data set with HeLa Kyoto [1] (cell cycle stage: mitosis) was 53.2 °C each time. Moreover, the “solubility in G1/S (log2)” value in the data set with HeLa Kyoto [2] was -0.0011. The “solubility change mitosis (log2)” value in the data set with HeLa Kyoto [3] is -0.139. Besides, the thermal stability score in the data set on HeLa Kyoto [4] (setting [5]) came out at 1.88; in the data set with HeLa Kyoto [4] (cell cycle stage: mitosis) it was 1.67.
For the sequence “MLERRCRGPLAMGLAQPRLLSGPSQESPQTLGKESRGLRQQGTSVAQSGAQAPGRAHRCAHCRRHFPGWVALWLHTRRCQARLPLPCPECGRRFRHAPFLALHRQVHAAATPDLGFACHLCGQSFRGWVALVLHLRAHSAAKRPIACPKCERRFWRRKQLRAHLRRCHPPAPEARPFICGNCGRSFAQWDQLVAHKRVHVAEALEEAAAKALGPRPRGRPAVTAPRPGGDAVDRPFQCACCGKRFRHKPNLIAHRRVHTGERPHQCPECGKRFTNKPYLTSHRRIHTGEKPYPCKECGRRFRHKPNLLSHSKIHKRSEGSAQAAPGPGSPQLPAGPQESAAEPTPAVPLKPAQEPPPGAPPEHPQDPIEAPPSLYSCDDCGRSFRLERFLRAHQRQHTGERPFTCAECGKNFGKKTHLVAHSRVHSGERPFACEECGRRFSQGSHLAAHRRDHAPDRPFVCPDCGKAFRHKPYLAAHRRIHTGEKPYVCPDCGKAFSQKSNLVSHRRIHTGERPYACPDCDRSFSQKSNLITHRKSHIRDGAFCCAICGQTFDDEERLLAHQKKHDV [REPIN1]”, the melting temperature with HeLa Kyoto [1] (cell cycle stage: G1/S) was 54.4 °C; in the data set on HeLa Kyoto [1] (cell cycle stage: mitosis), 52.9 °C. The “solubility in G1/S (log2)” value with HeLa Kyoto [2] was -0.0762. For the same sequence, in the data set on HeLa Kyoto [3], the “solubility change mitosis (log2)” value was -0.0234. The values for the thermal stability score with HeLa Kyoto [4] (setting [5]) and with HeLa Kyoto [4] (cell cycle stage: mitosis) were -0.836 and -2.05, respectively.

Values taken from the supplement of paper PMC5998384.
